Measured values from article PMC9482650, “Quantitative fragmentomics allow affinity mapping of interactomes” (Nature Communications, 2022).

Key:
Assay in all cases: holdup assay
Parameters in all cases: key: below the threshold = too weak to quantify, mostly under pKd 3.1 to 4
Conditions in all cases: plain residues with an end cap or a label only (N-terminal biotin on a linker: ado-ado)
GORASP2, Q9H8Y8 = target: GORASP2, Q9H8Y8
GRASP, Q7Z6J2 = target: GRASP, Q7Z6J2
DLG1_2, Q12959 = target: DLG1_2, Q12959
DLG1_2, Q12959, sequence (Q12959 314-412): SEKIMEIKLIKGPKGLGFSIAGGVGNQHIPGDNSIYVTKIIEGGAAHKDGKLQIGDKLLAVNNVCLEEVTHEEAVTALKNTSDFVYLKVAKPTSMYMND

FRMPD4, Q14CM0 = target: FRMPD4, Q14CM0
FRMPD4, Q14CM0, sequence (Q14CM0 67-160): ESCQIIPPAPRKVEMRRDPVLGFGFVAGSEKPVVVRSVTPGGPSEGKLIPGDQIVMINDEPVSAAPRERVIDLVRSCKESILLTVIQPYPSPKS

DLG2_3, Q15700 = target: DLG2_3, Q15700
MAGI2_4, Q86UL8 = target: MAGI2_4, Q86UL8
MAGI2_4, Q86UL8, sequence (Q86UL8 772-865): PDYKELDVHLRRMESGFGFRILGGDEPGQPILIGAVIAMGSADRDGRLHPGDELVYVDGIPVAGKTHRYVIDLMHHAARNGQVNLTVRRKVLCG

DLG4_2, P78352 = target: DLG4_2, P78352
DLG4_2, P78352, sequence (P78352 155-259): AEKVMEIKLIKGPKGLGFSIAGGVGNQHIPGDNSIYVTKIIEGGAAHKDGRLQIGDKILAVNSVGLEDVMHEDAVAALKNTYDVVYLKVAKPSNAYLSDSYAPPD

Inadl_1, Q8NI35 = target: Inadl_1, Q8NI35
Inadl_1, Q8NI35, sequence (Q8NI35 113-229): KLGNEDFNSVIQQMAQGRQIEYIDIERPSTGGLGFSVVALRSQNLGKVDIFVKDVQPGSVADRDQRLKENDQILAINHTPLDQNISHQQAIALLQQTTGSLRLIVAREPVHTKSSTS

APBA2_2, Q99767 = target: T1, APBA2_2, Q99767
T1 sequence (Q99767 654-744, limits assumed, looked up): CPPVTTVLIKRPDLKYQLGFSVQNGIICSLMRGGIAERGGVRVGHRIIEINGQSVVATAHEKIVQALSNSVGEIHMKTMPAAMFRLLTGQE

GRIP2_5, Q9C0E4 = target: GRIP2_5, Q9C0E4
GRIP2_5, Q9C0E4, sequence (Q9C0E4 544-642): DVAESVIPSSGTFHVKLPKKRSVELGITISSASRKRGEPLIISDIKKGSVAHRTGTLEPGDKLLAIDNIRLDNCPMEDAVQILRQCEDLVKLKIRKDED

LNX1_3, Q8TBB1 = target: LNX1_3, Q8TBB1
LNX1_3, Q8TBB1, sequence (Q8TBB1 500-596): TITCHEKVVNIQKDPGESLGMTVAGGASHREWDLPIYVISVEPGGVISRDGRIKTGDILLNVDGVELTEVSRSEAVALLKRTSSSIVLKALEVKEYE

LAP2, Q96RT1 = target: LAP2, Q96RT1
LAP2, Q96RT1, sequence (Q96RT1 other isoform, or with tags, fused parts or gaps): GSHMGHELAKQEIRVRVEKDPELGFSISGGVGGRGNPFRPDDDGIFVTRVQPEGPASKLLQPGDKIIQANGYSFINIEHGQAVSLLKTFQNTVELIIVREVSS

PDZD2_2, O15018 = target: T2, PDZD2_2, O15018
T2 sequence (O15018 329-429, limits assumed, looked up): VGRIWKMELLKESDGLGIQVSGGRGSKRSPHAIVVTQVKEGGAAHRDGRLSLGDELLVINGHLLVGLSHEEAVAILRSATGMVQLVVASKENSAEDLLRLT

HTRA2, O43464 = target: HTRA2, O43464
HTRA2, O43464, sequence (O43464 355-458): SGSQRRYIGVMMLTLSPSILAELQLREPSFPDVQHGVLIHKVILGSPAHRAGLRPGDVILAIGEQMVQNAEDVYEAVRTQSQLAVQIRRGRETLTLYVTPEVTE

LNX1_2, Q8TBB1 = target: LNX1_2, Q8TBB1
LNX1_2, Q8TBB1, sequence (Q8TBB1 371-470): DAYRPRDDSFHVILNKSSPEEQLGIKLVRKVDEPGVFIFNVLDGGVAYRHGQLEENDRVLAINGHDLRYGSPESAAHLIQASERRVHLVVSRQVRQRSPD

IL16_4, Q14005 = target: IL16_4, Q14005
IL16_4, Q14005, sequence (Q14005 1229-1329): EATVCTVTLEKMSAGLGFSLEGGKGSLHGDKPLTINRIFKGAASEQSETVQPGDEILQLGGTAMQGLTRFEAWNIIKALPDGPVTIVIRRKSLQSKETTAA

SHANK1, Q9Y566 = target: T3, SHANK1, Q9Y566
T3 sequence (Q9Y566 658-767, limits assumed, looked up): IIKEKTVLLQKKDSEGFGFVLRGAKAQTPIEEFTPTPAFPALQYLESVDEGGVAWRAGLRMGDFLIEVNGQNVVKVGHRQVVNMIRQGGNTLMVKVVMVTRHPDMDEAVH

GRID2IP_2, A4D2P6 = target: GRID2IP_2, A4D2P6
GRID2IP_2, A4D2P6, sequence (A4D2P6 272-370): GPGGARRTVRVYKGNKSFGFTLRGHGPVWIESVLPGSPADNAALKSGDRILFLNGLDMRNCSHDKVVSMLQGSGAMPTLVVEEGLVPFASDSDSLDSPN

DLG4_3, P78352 = target: DLG4_3, P78352
DLG4_3, P78352, sequence (P78352 306-403): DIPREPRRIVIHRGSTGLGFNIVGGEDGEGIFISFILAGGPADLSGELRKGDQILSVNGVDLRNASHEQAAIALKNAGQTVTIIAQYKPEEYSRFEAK

MAST1, Q9Y2H9 = target: MAST1, Q9Y2H9
MAST1, Q9Y2H9, sequence (Q9Y2H9 962-1065): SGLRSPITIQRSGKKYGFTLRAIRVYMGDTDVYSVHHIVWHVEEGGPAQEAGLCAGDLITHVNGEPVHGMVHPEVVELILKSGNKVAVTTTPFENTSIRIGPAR

HTRA1, Q92743 = target: HTRA1, Q92743
HTRA1, Q92743, sequence (Q92743 360-477): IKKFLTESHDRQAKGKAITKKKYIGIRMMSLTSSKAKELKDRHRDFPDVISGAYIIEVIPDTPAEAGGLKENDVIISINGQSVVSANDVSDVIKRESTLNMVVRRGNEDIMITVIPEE

PDLIM1, O00151 = target: PDLIM1, O00151
PDLIM1, O00151, sequence (O00151 1-87): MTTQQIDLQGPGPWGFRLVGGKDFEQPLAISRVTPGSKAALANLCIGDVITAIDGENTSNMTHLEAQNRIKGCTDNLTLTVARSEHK

MAGI2_5, Q86UL8 = target: MAGI2_5, Q86UL8
MAGI2_5, Q86UL8, sequence (Q86UL8 915-1017): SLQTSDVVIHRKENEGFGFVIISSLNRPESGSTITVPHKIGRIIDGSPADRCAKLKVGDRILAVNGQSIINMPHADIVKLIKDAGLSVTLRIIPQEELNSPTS

Inadl_10, Q8NI35 = target: Inadl_10, Q8NI35
Inadl_10, Q8NI35, sequence (Q8NI35 1673-1763): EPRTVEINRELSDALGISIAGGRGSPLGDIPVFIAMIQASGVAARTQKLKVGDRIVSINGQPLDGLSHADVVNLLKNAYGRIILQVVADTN

GIPC2, Q8TF65 = target: GIPC2, Q8TF65
GIPC2, Q8TF65, sequence (Q8TF65 112-203): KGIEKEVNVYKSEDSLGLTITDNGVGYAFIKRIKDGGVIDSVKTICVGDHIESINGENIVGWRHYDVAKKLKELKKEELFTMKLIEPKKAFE

ARHGAP21, Q5T5U3 = target: T4, ARHGAP21, Q5T5U3
T4 sequence (Q5T5U3 45-169, limits assumed, looked up): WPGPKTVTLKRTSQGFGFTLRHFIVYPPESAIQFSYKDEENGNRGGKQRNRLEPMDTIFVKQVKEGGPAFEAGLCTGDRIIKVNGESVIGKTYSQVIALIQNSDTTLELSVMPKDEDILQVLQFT

IL16_1, Q14005 = target: IL16_1, Q14005
IL16_1, Q14005, sequence (Q14005 210-306): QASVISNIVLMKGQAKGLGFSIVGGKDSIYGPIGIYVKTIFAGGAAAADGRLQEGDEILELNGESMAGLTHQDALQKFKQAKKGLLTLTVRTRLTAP

MAGI3_2, Q5TCQ9 = target: MAGI3_2, Q5TCQ9
MAGI3_2, Q5TCQ9, sequence (Q5TCQ9 398-503): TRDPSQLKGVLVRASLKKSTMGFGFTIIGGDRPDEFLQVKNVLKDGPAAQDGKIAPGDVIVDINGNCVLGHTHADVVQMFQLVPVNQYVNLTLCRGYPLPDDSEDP

RADIL, Q96JH8 = target: T5, RADIL, Q96JH8
T5 sequence (Q96JH8 971-1071, limits assumed, looked up): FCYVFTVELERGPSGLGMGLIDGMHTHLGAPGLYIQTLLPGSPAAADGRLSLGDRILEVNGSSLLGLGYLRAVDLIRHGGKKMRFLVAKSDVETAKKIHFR

DLG4_1, P78352 = target: DLG4_1, P78352
DLG4_1, P78352, sequence (P78352 62-152): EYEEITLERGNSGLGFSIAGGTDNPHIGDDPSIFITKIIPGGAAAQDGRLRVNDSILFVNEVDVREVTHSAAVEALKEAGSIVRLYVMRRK

Inadl_6, Q8NI35 = target: Inadl_6, Q8NI35
Inadl_6, Q8NI35, sequence (Q8NI35 1058-1167): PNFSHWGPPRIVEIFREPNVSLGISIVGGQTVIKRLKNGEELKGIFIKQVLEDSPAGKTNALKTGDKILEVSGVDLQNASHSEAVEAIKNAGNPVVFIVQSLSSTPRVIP

SNTB1, Q13884 = target: T6, SNTB1, Q13884
T6 sequence (Q13884 107-205, limits assumed, looked up): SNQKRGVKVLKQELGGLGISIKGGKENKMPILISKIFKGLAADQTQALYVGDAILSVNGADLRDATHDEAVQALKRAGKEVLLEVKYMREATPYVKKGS

MAST2, Q6P0Q8 = target: MAST2, Q6P0Q8
MAST2, Q6P0Q8, sequence (Q6P0Q8 1099-1202): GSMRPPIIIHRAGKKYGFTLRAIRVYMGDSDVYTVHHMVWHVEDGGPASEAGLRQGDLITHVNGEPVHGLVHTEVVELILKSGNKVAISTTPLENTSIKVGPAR

GRASP, Q7Z6J2, sequence (Q7Z6J2 96-193): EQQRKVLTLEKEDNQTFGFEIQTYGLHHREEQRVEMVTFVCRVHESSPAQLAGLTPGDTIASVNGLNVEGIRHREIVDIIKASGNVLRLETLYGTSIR

B1: GRIA2, P42262 (peptide)
chain: NVYGIESVKI
pKd (GORASP2, Q9H8Y8): 4.18
pKd (GRASP, Q7Z6J2): below the threshold
pKd (DLG1_2, Q12959): 3.96
pKd (FRMPD4, Q14CM0): below the threshold
pKd (DLG2_3, Q15700): 3.81
pKd (MAGI2_4, Q86UL8): below the threshold
pKd (DLG4_2, P78352): 3.73
pKd (Inadl_1, Q8NI35): below the threshold
pKd (APBA2_2, Q99767): 3.6
pKd (GRIP2_5, Q9C0E4): below the threshold
pKd (LNX1_3, Q8TBB1): below the threshold
pKd (LAP2, Q96RT1): 3.56
pKd (PDZD2_2, O15018): 3.63
pKd (HTRA2, O43464): below the threshold
pKd (LNX1_2, Q8TBB1): below the threshold
pKd (IL16_4, Q14005): below the threshold
pKd (SHANK1, Q9Y566): 3.9
pKd (GRID2IP_2, A4D2P6): below the threshold
pKd (DLG4_3, P78352): below the threshold
pKd (MAST1, Q9Y2H9): 4.27
pKd (HTRA1, Q92743): 4.25
pKd (PDLIM1, O00151): below the threshold
pKd (MAGI2_5, Q86UL8): below the threshold
pKd (Inadl_10, Q8NI35): below the threshold
pKd (GIPC2, Q8TF65): below the threshold
pKd (ARHGAP21, Q5T5U3): below the threshold
pKd (IL16_1, Q14005): below the threshold
pKd (MAGI3_2, Q5TCQ9): 3.62
pKd (RADIL, Q96JH8): below the threshold
pKd (DLG4_1, P78352): below the threshold
pKd (Inadl_6, Q8NI35): below the threshold
pKd (SNTB1, Q13884): 3.51
pKd (MAST2, Q6P0Q8): 4.35

B2: RPS6KA3, P51812 (peptide)
chain: GIKKITSTAL
pKd (GORASP2, Q9H8Y8): below the threshold
pKd (GRASP, Q7Z6J2): 4.68
pKd (DLG1_2, Q12959): 4.32
pKd (FRMPD4, Q14CM0): 4.26
pKd (DLG2_3, Q15700): 3.63
pKd (MAGI2_4, Q86UL8): 3.8
pKd (DLG4_2, P78352): 4.18
pKd (Inadl_1, Q8NI35): below the threshold
pKd (APBA2_2, Q99767): below the threshold
pKd (GRIP2_5, Q9C0E4): 3.8
pKd (LNX1_3, Q8TBB1): below the threshold
pKd (LAP2, Q96RT1): below the threshold
pKd (PDZD2_2, O15018): 3.57
pKd (HTRA2, O43464): 3.55
pKd (LNX1_2, Q8TBB1): below the threshold
pKd (IL16_4, Q14005): 3.78
pKd (SHANK1, Q9Y566): 5.16
pKd (GRID2IP_2, A4D2P6): 4.74
pKd (DLG4_3, P78352): 3.87
pKd (MAST1, Q9Y2H9): 5.06
pKd (HTRA1, Q92743): 3.58
pKd (PDLIM1, O00151): 3.48
pKd (MAGI2_5, Q86UL8): 3.95
pKd (Inadl_10, Q8NI35): 3.66
pKd (GIPC2, Q8TF65): below the threshold
pKd (ARHGAP21, Q5T5U3): 3.93
pKd (IL16_1, Q14005): 3.5
pKd (MAGI3_2, Q5TCQ9): 4.08
pKd (RADIL, Q96JH8): below the threshold
pKd (DLG4_1, P78352): 3.76
pKd (Inadl_6, Q8NI35): 3.57
pKd (SNTB1, Q13884): 4.23
pKd (MAST2, Q6P0Q8): 5.88

B3: MTNR1A, P48039 (peptide)
chain: NNNVVKVDSV
pKd (GORASP2, Q9H8Y8): below the threshold
pKd (GRASP, Q7Z6J2): below the threshold
pKd (DLG1_2, Q12959): below the threshold
pKd (FRMPD4, Q14CM0): below the threshold
pKd (DLG2_3, Q15700): 3.54
pKd (MAGI2_4, Q86UL8): below the threshold
pKd (DLG4_2, P78352): below the threshold
pKd (Inadl_1, Q8NI35): below the threshold
pKd (APBA2_2, Q99767): below the threshold
pKd (GRIP2_5, Q9C0E4): below the threshold
pKd (LNX1_3, Q8TBB1): below the threshold
pKd (LAP2, Q96RT1): below the threshold
pKd (PDZD2_2, O15018): 3.98
pKd (HTRA2, O43464): below the threshold
pKd (LNX1_2, Q8TBB1): below the threshold
pKd (IL16_4, Q14005): 3.5
pKd (SHANK1, Q9Y566): below the threshold
pKd (GRID2IP_2, A4D2P6): below the threshold
pKd (DLG4_3, P78352): below the threshold
pKd (MAST1, Q9Y2H9): below the threshold
pKd (HTRA1, Q92743): below the threshold
pKd (PDLIM1, O00151): below the threshold
pKd (MAGI2_5, Q86UL8): below the threshold
pKd (Inadl_10, Q8NI35): below the threshold
pKd (GIPC2, Q8TF65): below the threshold
pKd (ARHGAP21, Q5T5U3): below the threshold
pKd (IL16_1, Q14005): below the threshold
pKd (MAGI3_2, Q5TCQ9): below the threshold
pKd (RADIL, Q96JH8): below the threshold
pKd (DLG4_1, P78352): below the threshold
pKd (Inadl_6, Q8NI35): below the threshold
pKd (SNTB1, Q13884): below the threshold
pKd (MAST2, Q6P0Q8): below the threshold

B4: SLC16A7, O60669 (peptide)
chain: SVTSERETNI
pKd (GORASP2, Q9H8Y8): below the threshold
pKd (GRASP, Q7Z6J2): below the threshold
pKd (DLG1_2, Q12959): 4.42
pKd (FRMPD4, Q14CM0): below the threshold
pKd (DLG2_3, Q15700): 3.62
pKd (MAGI2_4, Q86UL8): below the threshold
pKd (DLG4_2, P78352): 4.11
pKd (Inadl_1, Q8NI35): below the threshold
pKd (APBA2_2, Q99767): below the threshold
pKd (GRIP2_5, Q9C0E4): below the threshold
pKd (LNX1_3, Q8TBB1): below the threshold
pKd (LAP2, Q96RT1): below the threshold
pKd (PDZD2_2, O15018): 4.65
pKd (HTRA2, O43464): below the threshold
pKd (LNX1_2, Q8TBB1): below the threshold
pKd (IL16_4, Q14005): 3.49
pKd (SHANK1, Q9Y566): below the threshold
pKd (GRID2IP_2, A4D2P6): below the threshold
pKd (DLG4_3, P78352): below the threshold
pKd (MAST1, Q9Y2H9): 4.14
pKd (HTRA1, Q92743): below the threshold
pKd (PDLIM1, O00151): below the threshold
pKd (MAGI2_5, Q86UL8): below the threshold
pKd (Inadl_10, Q8NI35): below the threshold
pKd (GIPC2, Q8TF65): below the threshold
pKd (ARHGAP21, Q5T5U3): below the threshold
pKd (IL16_1, Q14005): below the threshold
pKd (MAGI3_2, Q5TCQ9): below the threshold
pKd (RADIL, Q96JH8): below the threshold
pKd (DLG4_1, P78352): below the threshold
pKd (Inadl_6, Q8NI35): below the threshold
pKd (SNTB1, Q13884): 5.38
pKd (MAST2, Q6P0Q8): 4.84
